Data: paper PMC3486911 (PLoS Pathogens, 2012)
“And” between values parts separate entries of the source, which are not always exact repeats. Identical values can stand only once. Like-named read-outs stand apart in the source and are kept apart here.

Assays:
Experiment in all cases: SPR
[1] = target: V3 fHbp Lys127 mutant (to Ala) (Neisseria meningitidis)
[2] = target: V3 fHbp Ala99Glu (Neisseria meningitidis)
[3] = target: V3 fHbp Gln87 mutant (to Ala) (Neisseria meningitidis) (UniProt E6MV22)
[4] = target: V3 fHbp Ile122 mutant (to Ala) (Neisseria meningitidis)
[5] = target: V3 fHbp Val114 mutant (to Ala) (Neisseria meningitidis)
[6] = target: V3 fHbp Gln134 mutant (to Ala) (Neisseria meningitidis) (UniProt E6MV22)
[7] = target: V3 fHbp Pro125 mutant (to Ala) (Neisseria meningitidis)
[8] = target: V3 fHbp Asp43 mutant (to Ala) (Neisseria meningitidis)
[9] = target: V3 fHbp Val91 mutant (to Ala) (Neisseria meningitidis)
[10] = target: V3 fHbp Pro46 mutant (to Ala) (Neisseria meningitidis)
[11] = target: V3 fHbp His190 mutant (to Ala) (Neisseria meningitidis)
[12] = target: V3 fHbp Asp126 mutant (to Ala) (Neisseria meningitidis)
[13] = target: V3 fHbp Asp92 mutant (to Ala) (Neisseria meningitidis)
[14] = target: V3 fHbp Thr128 mutant (to Ala) (Neisseria meningitidis)
[15] = target: V3 fHbp (V3.p28), wild type (Neisseria meningitidis) (UniProt E6MV22)
[16] = target: V1 fHbp (V1.p1), wild type (Neisseria meningitidis) (UniProt Q9JXV4)
[17] = target: V3 fHbp Asn123 mutant (to Ala) (Neisseria meningitidis)
[18] = target: V3 fHbp Asn48 mutant (to Ala) (Neisseria meningitidis)
[19] = target: V3 fHbp Ser44 mutant (to Ala) (Neisseria meningitidis)
[20] = target: V3 fHbp Ile96 mutant (to Ala) (Neisseria meningitidis)
[21] = target: V3 fHbp Leu98 mutant (to Ala) (Neisseria meningitidis)
[22] = target: V3 fHbp Ala99Glu (Neisseria meningitidis); remark: listed apart in the source
[23] = target: V3 fHbp Ile122 mutant (to Ala) (Neisseria meningitidis); remark: listed apart in the source
[24] = target: V3 fHbp Asp92 mutant (to Ala) (Neisseria meningitidis); remark: listed apart in the source
[25] = target: V3 fHbp Leu117 mutant (to Ala) (Neisseria meningitidis)
[26] = target: V1 fHbp Phe194-Ala (Neisseria meningitidis)
[27] = target: V1 fHbp Lys191-Ala (Neisseria meningitidis)
[28] = target: V1 fHbp His203-Ala (Neisseria meningitidis)
[29] = target: V1 fHbp Gln193-Ala (Neisseria meningitidis)
[30] = target: V1 fHbp (V1.p1), wild type (Neisseria meningitidis) (UniProt Q9JXV4); remark: listed apart in the source
[31] = target: V1 fHbp Arg195-Ala (Neisseria meningitidis)
[32] = target: V1 fHbp Ile196-Ala (Neisseria meningitidis)

For “human factor H CCP 6 and 7 (fH67) (domain or fragment)”, the Kd [1] was 2.95 nM, the Kd [2] was 74.5 nM and the Kd [3] was 0.715 nM. For the same substance, the Kd [4] was 10.2 nM, the Kd [5] was 3.25 nM and the Kd [6] was 2.65 nM. For the same substance, the Kd [7] was 3.3 nM, the Kd [8] was 3.2 nM and the Kd [9] was 6.05 nM. The Kd [10] was 0.028 nM, the Kd [11] was 3.35 nM and the Kd [12] was 6.4 nM. It also gave a Kd [13] of 4.75 nM, a Kd [14] of 4.2 nM and a Kd [15] of 2.35 nM. It also gave a Kd [16] of 2.05 nM, a Kd [17] of 8 nM and a Kd [18] of 3.65 nM. For the same substance, the Kd [19] was 9.9 nM, the Kd [20] was 14.5 nM and the Kd [21] was 87 nM. The Kd [22] was 79 nM and 70 nM, the Kd [23] was 9.4 nM and 11 nM and the Kd [24] was 4.7 nM and 4.8 nM. It also gave a Kd [25] of 5.2 nM, a Kd [26] of 6.15 nM and a Kd [27] of 4.15 nM. For the same substance, the Kd [28] was 1.7 nM, the Kd [29] was 4.75 nM and the Kd [30] was 2.8 nM and 2.35 nM and 2.45 nM. For the same substance, the Kd [31] was 218 nM and the Kd [32] was 1.5 nM.
